Results: US20230079150A1, “METHODS FOR PREVENTION OR TREATMENT OF VIRUS-INDUCED ORGAN INJURY OR FAILURE WITH IL-22 DIMER” (priority 2020, published 2023)
Like-named read-outs stand apart in the source and are kept apart here.

Columns and labels:
[1] = LPS acute lung injury mouse model: human IL-22 ELISA in BAL; format: in vivo, mice; settings: high-dose LPS; F-652 4 μg tail vein; day 4; sham non-detectable
Description: After approval from the Tulane University, Institutional Animal Care and Use Committee (protocol ID 607), equal numbers of male and female, 6-8 week old C57BL/6 mice (Charles River Laboratories, Cambridge, Mass.) were given acute lung injury (ALI) via intra-tracheally administered LPS. After obtaining appropriate depth of anesthesia using isoflurane, the high-dose LPS group (HDG) received 100 μg of LPS administered intra-tracheally. Approximately 30 minutes after LPS administration, 4 μg of F-652 was administered via tail vein injection (n=11), then compared to animals receiving sham injection (n=8) with phosphate-buffered saline (PBS). In the low-dose LPS group (LDG), 33.3 μg of LPS was administered intra-tracheally. F-652 was again administered at 30 minutes (n=9) and compared to sham injected animals (n=9). […]
The BAL fluid was then centrifuged at 500×gravity for 5 minutes. […] To quantify protein in the BAL supernatant, a Bradford protein assay (Bio-Rad Laboratories) was performed. Protein was quantified by measuring absorbance at 595 nm on a BMG Labtech FLUOstar Optima plate reader. […] Human IL-22 was measured using an IL-22 Human ELISA kit (ThermoFisher Scientific). Mouse IL-22 was measured using an IL-22 Mouse/Rat Quantikine ELISA kit (R&D Systems).

[2] = tested on: H1N1 influenza (A/PR8 strain); format: in vivo, C57BL/6 mice; settings: both aged and young H1N1-infected mice
[3] = tested on: H1N1 influenza (A/PR8 strain)
[4] = tested on: C57BL/6 mice; experiment: LPS acute lung injury mouse model: BAL inflammatory mediators (Milliplex cytokine panel); format: in vivo; settings: day 4
Description: After approval from the Tulane University, Institutional Animal Care and Use Committee (protocol ID 607), equal numbers of male and female, 6-8 week old C57BL/6 mice (Charles River Laboratories, Cambridge, Mass.) were given acute lung injury (ALI) via intra-tracheally administered LPS. After obtaining appropriate depth of anesthesia using isoflurane, the high-dose LPS group (HDG) received 100 μg of LPS administered intra-tracheally. Approximately 30 minutes after LPS administration, 4 μg of F-652 was administered via tail vein injection (n=11), then compared to animals receiving sham injection (n=8) with phosphate-buffered saline (PBS). In the low-dose LPS group (LDG), 33.3 μg of LPS was administered intra-tracheally. F-652 was again administered at 30 minutes (n=9) and compared to sham injected animals (n=9). The Interleukin-22:Fc (F-652) protein is a recombinant fusion protein (F-652) (Evive Biotech, Shanghai, China) with two human IL-22 molecules linked to the Fc portion of human immunoglobulin G2, which extends the half-life of the molecule.
Euthanasia and bronchoalveolar lavage (BAL) was carried out on post-injury day 4. After obtaining appropriate levels of anesthesia with inhaled isoflurane, the trachea was cannulated using a 26 gauge needle and BAL was performed with three successive washes using 1 mL of PBS. Next, a small segment of the left lower lobe was removed and saved for RNA isolation. Finally, 1 cc of 4% paraformaldehyde was injected to the lung for fixation.
The BAL fluid was then centrifuged at 500×gravity for 5 minutes. Cells were obtained from the BAL after centrifuge and cell counts performed. Cells were then affixed to glass slides and stained with Wright's stain. To quantify protein in the BAL supernatant, a Bradford protein assay (Bio-Rad Laboratories) was performed. Protein was quantified by measuring absorbance at 595 nm on a BMG Labtech FLUOstar Optima plate reader. In addition, the BAL supernatant was used to measure pro-inflammatory cytokines using a Milliplex Mouse Cytokine/Chemokine Magnetic Bead Panel (Millipore Sigma). The 32 cytokines measured included Eotaxin, Granulocyte Colony-Stimulating Factor (G-CSF), Granulocyte-Monocyte Colony-Stimulating Factor (GM-CSF), Interferon-γ (IFN-γ), Interleukin-1α (IL-1α), IL-1, IL-2, IL-3, IL-4, IL-5, IL-6, IL-7, IL-9, IL-10, IL-12 (p40 segment), IL-12 (p70 segment), IL-13, IL-15, IL-17, Interferon-γ induced protein 10 (IP-10), keratinocyte chemoattractant (KC), leukemia inhibitory factor (LIF), lipopolysaccharide-induced CXC chemokine (LIX), monocyte chemoattractant protein-1 (MCP-1), macrophage colony-stimulating factor (M-CSF), monokine induced by gamma-interferon (MIG), MIP-1α, macrophage inflammatory protein-1β/CCL4 (MIP-1β), MIP-2, regulated upon activation, normal T-cell expressed and presumably secreted (RANTES), tumor necrosis factor-α (TNF-α), vascular endothelial growth factor (VEGF). Human IL-22 was measured using an IL-22 Human ELISA kit (ThermoFisher Scientific). Mouse IL-22 was measured using an IL-22 Mouse/Rat Quantikine ELISA kit (R&D Systems).

B1: F-652: recombinant IL-22 dimer consisting of two monomeric subunits each comprising a sequence shown in SEQ ID NO: 24 (protein)
chain 1: APISSHCRLDKSNFQQPYITNRTFMLAKEASLADNNTDVRLIGEKLFHGVSMSERCYLMKQVLNFTLEEVLFPQSDRFQPYMQEVVPFLARLSNRLSTCHIEGDDLHIQRNVQKLKDTVKKLGESGEIKAIGELDLLFMSLRNACIGSGGGSGGGGSGGGGSVECPPCPAPPVAGPSVFLFPPKPKDTLMISRTPEVTCVVVDVSHEDPEVQFNWYVDGVEVHNAKTKPREEQFNSTFRVVSVLTVVHQDWLNGKEYKCKVSNKGLPASIEKTISKTKGQPREPQVYTLPPSREEMTKNQVSLTCLVKGFYPSDIAVEWESNGQPENNYKTTPPMLDSDGSFFLYSKLTVDKSRWQQGNVFSCSVMHEALHNHYTQKSLSLSPGK
chain 2: APISSHCRLDKSNFQQPYITNRTFMLAKEASLADNNTDVRLIGEKLFHGVSMSERCYLMKQVLNFTLEEVLFPQSDRFQPYMQEVVPFLARLSNRLSTCHIEGDDLHIQRNVQKLKDTVKKLGESGEIKAIGELDLLFMSLRNACIGSGGGSGGGGSGGGGSVECPPCPAPPVAGPSVFLFPPKPKDTLMISRTPEVTCVVVDVSHEDPEVQFNWYVDGVEVHNAKTKPREEQFNSTFRVVSVLTVVHQDWLNGKEYKCKVSNKGLPASIEKTISKTKGQPREPQVYTLPPSREEMTKNQVSLTCLVKGFYPSDIAVEWESNGQPENNYKTTPPMLDSDGSFFLYSKLTVDKSRWQQGNVFSCSVMHEALHNHYTQKSLSLSPGK
modifications: homodimer
**Q.** Which “human IL-22 level in BAL” value [1] does the source give for B1 here?
**A.** 27.41 pg/mL

**Q.** And the “hydroxyproline content of right lung lobes compared to PBS control” value [2]?
**A.** significantly reduced

**Q.** And the “mice lost during the treatment phase” value ([3]; aged mice, Days 21-64 post-infection, F-652 200 μg/kg once weekly for 3 weeks, no PBS treated mice lost)?
**A.** 3 mice

**Q.** And the “mice lost during the treatment phase” value ([3]; aged mice, F-652 200 μg/kg once weekly, 6-week treatment group)?
**A.** 2 mice

**Q.** And the “mice lost during the treatment phase” value ([3]; young groups, F-652 200 μg/kg once weekly)?
**A.** no mice were lost

**Q.** And the “body weight, F-652 vs PBS treatment groups” value ([3]; young or aged mice, Days 21-64 post-infection)?
**A.** no notable differences

**Q.** And the “C-X-C Motif Chemokine 5 (LIX) in BAL” value ([4]; high dose LPS, F-652 4 μg i.v.)?
**A.** 0.00 ± 0.00 pg/mL

**Q.** And the “Eotaxin in BAL” value ([4]; high dose LPS, F-652 4 μg i.v.)?
**A.** 4.63 ± 2.43 pg/mL

**Q.** And the “Granulocyte-Macrophage Colony-Stimulating Factor in BAL” value ([4]; high dose LPS, F-652 4 μg i.v.)?
**A.** 0.00 ± 0.00 pg/mL

**Q.** What about the “Interferon-γ in BAL” value ([4]; high dose LPS, F-652 4 μg i.v.) of the same molecule?
**A.** 8.08 ± 2.18 pg/mL

**Q.** What about the “Interferon-γ-Induced Protein-10 in BAL” value ([4]; high dose LPS, F-652 4 μg i.v.) of the same molecule?
**A.** 118.40 ± 43.72 pg/mL

**Q.** And the “Interleukin-1α in BAL” value ([4]; high dose LPS, F-652 4 μg i.v.)?
**A.** 69.39 ± 5.91 pg/mL

**Q.** What about the “Interleukin-1β in BAL” value ([4]; high dose LPS, F-652 4 μg i.v.) of the same molecule?
**A.** 3.48 ± 1.25 pg/mL

**Q.** What about the “Interleukin-2 in BAL” value ([4]; high dose LPS, F-652 4 μg i.v.) of the same molecule?
**A.** 7.33 ± 0.83 pg/mL

**Q.** What about the “Interleukin-3 in BAL” value ([4]; high dose LPS, F-652 4 μg i.v.) of the same molecule?
**A.** 1.07 ± 0.02 pg/mL

**Q.** And the “Interleukin-4 in BAL” value ([4]; high dose LPS, F-652 4 μg i.v.)?
**A.** 1.09 ± 0.09 pg/mL

**Q.** What about the “Interleukin-5 in BAL” value ([4]; high dose LPS, F-652 4 μg i.v.) of the same molecule?
**A.** 7.86 ± 1.14 pg/mL

**Q.** And the “Interleukin-7 in BAL” value ([4]; high dose LPS, F-652 4 μg i.v.)?
**A.** 1.75 ± 0.18 pg/mL

**Q.** And the “Interleukin-9 in BAL” value ([4]; high dose LPS, F-652 4 μg i.v.)?
**A.** 311.8 ± 38.17 pg/mL

**Q.** What about the “Interleukin-12 (p40) in BAL” value ([4]; high dose LPS, F-652 4 μg i.v.) of the same molecule?
**A.** 7.13 ± 1.89 pg/mL

**Q.** And the “Interleukin-12 (p70) in BAL” value ([4]; high dose LPS, F-652 4 μg i.v.)?
**A.** 1.95 ± 1.00 pg/mL

**Q.** What about the “Interleukin-13 in BAL” value ([4]; high dose LPS, F-652 4 μg i.v.) of the same molecule?
**A.** 10.56 ± 1.49 pg/mL

**Q.** And the “Interleukin-15 in BAL” value ([4]; high dose LPS, F-652 4 μg i.v.)?
**A.** 6.10 ± 1.02 pg/mL

**Q.** What about the “Interleukin-17 in BAL” value ([4]; high dose LPS, F-652 4 μg i.v.) of the same molecule?
**A.** 2.28 ± 0.56 pg/mL

**Q.** And the “Keratinocyte Chemoattractant/Growth Regulated Oncogene in BAL” value ([4]; high dose LPS, F-652 4 μg i.v.)?
**A.** 19.54 ± 3.08 pg/mL

**Q.** What about the “Macrophage Colony-Stimulating Factor in BAL” value ([4]; high dose LPS, F-652 4 μg i.v.) of the same molecule?
**A.** 2.89 ± 1.02 pg/mL

**Q.** And the “Macrophage Inflammatory Protein-1α in BAL” value ([4]; high dose LPS, F-652 4 μg i.v.)?
**A.** 45.99 ± 7.56 pg/mL

**Q.** And the “Macrophage Inflammatory Protein-1β in BAL” value ([4]; high dose LPS, F-652 4 μg i.v.)?
**A.** 19.42 ± 7.63 pg/mL

**Q.** And the “Macrophage Inflammatory Protein-2 in BAL” value ([4]; high dose LPS, F-652 4 μg i.v.)?
**A.** 28.63 ± 5.43 pg/mL

**Q.** What about the “Monocyte Chemoattractant Protein in BAL” value ([4]; high dose LPS, F-652 4 μg i.v.) of the same molecule?
**A.** 14.66 ± 7.16 pg/mL

**Q.** What about the “Monocyte Induced by Interferon-γ in BAL” value ([4]; high dose LPS, F-652 4 μg i.v.) of the same molecule?
**A.** 100.60 ± 35.47 pg/mL

**Q.** What about the “Vascular Endothelial Growth Factor in BAL” value ([4]; high dose LPS, F-652 4 μg i.v.) of the same molecule?
**A.** 12.18 ± 3.03 pg/mL

**Q.** And the “Interleukin-10 level in BAL fluid” value ([4]; high-dose LPS, F-652 4 μg tail vein, sham 4.05)?
**A.** 22.10 pg/mL
